FireProtDB (doi:10.1002/pro.5560050915)

B1: Adrenodoxin, mitochondrial, P00257 (parent)
chain: MAARLLRVASAALGDTAGRWRLLARPRAGAGGLRGSRGPGLGGGAVATRTLSVSGRAQSSSEDKITVHFINRDGETLTTKGKIGDSLLDVVVQNNLDIDGFGACEGTLACSTCHLIFEQHIFEKLEAITDEENDMLDLAYGLTDRSRLGCQICLTKAMDNMTVRVPDAVSDARESIDMGMNSSKIE

Variants of: B1
Conditions: Bos taurus, pH 8.5, Thermal, DSC, ascorbate 1 mM, structure 1AYF, whole UniProt chain shown; for ddG of mutation (higher = less stable) / unfolding free energy: 37 °C

| Variant | ddG of mutation (higher = less stable) | unfolding free energy | Tm | change of melting temperature, mutant - wild type (higher = more stable) | heat capacity change of unfolding | unfolding enthalpy (calorimetric) |
| --- | --- | --- | --- | --- | --- | --- |
| MAARLLRVASAALGDTAGRWRLLARPRAGAGGLRGSRGPGLGGGAVATRTLSVSGRAQSSSEDKITVHFINRDGETLTTKGKIGDSLLDVVVQNNLDIDGFGACEGTLACSACHLIFEQHIFEKLEAITDEENDMLDLAYGLTDRSRLGCQICLTKAMDNMTVRVPDAVSDARESIDMGMNSSKIE | 1.31 kcal/mol | 1.87 kcal/mol | 47.1 °C | -4.29 °C | 1.63 kcal/mol/K | 68.2 kcal/mol |
| MAARLLRVASAALGDTAGRWRLLARPRAGAGGLRGSRGPGLGGGAVATRTLSVSGRAQSSSEDKITVHFINRDGETLTTKGKIGDSLLDVVVQNNLDIDGFGACEGTLACSTCHLIFEQHIFEKLEAITDEENDMLDLAFGLTDRSRLGCQICLTKAMDNMTVRVPDAVSDARESIDMGMNSSKIE | 0.01 kcal/mol | 3.17 kcal/mol | 51.5 °C | 0.11 °C | 1.8 kcal/mol/K | 83.7 kcal/mol |
| MAARLLRVASAALGDTAGRWRLLARPRAGAGGLRGSRGPGLGGGAVATRTLSVSGRAQSSSEDKITVHFINRDGETLTTKGKIGDSLLDVVVQNNLDIDGFGACEGTLACSSCHLIFEQHIFEKLEAITDEENDMLDLAYGLTDRSRLGCQICLTKAMDNMTVRVPDAVSDARESIDMGMNSSKIE | -0.05 kcal/mol | 3.23 kcal/mol | 51.6 °C | 0.21 °C | 1.91 kcal/mol/K | 84.7 kcal/mol |
| MAARLLRVASAALGDTAGRWRLLARPRAGAGGLRGSRGPGLGGGAVATRTLSVSGRAQSSSEDKITVHFINRDGETLTTKGKIGDSLLDVVVQNNLDIDGFGACEGTLACSTCRLIFEQHIFEKLEAITDEENDMLDLAYGLTDRSRLGCQICLTKAMDNMTVRVPDAVSDARESIDMGMNSSKIE | 1.16 kcal/mol | 2.02 kcal/mol | 49.3 °C | -2.11 °C | 1.03 kcal/mol/K | 59.4 kcal/mol |
| MAARLLRVASAALGDTAGRWRLLARPRAGAGGLRGSRGPGLGGGAVATRTLSVSGRAQSSSEDKITVHFINRDGETLTTKGKIGDSLLDVVVQNNLDIDGFGACEGTLACSTCHLIFEQHIFEKLEAITDEENDMLDLALGLTDRSRLGCQICLTKAMDNMTVRVPDAVSDARESIDMGMNSSKIE | 0.36 kcal/mol | 2.83 kcal/mol | 50.7 °C | -0.69 °C | 1.92 kcal/mol/K | 78.9 kcal/mol |
| MAARLLRVASAALGDTAGRWRLLARPRAGAGGLRGSRGPGLGGGAVATRTLSVSGRAQSSSEDKITVHFINRDGETLTTKGKIGDSLLDVVVQNNLDIDGFGACEGTLACSTCHLIFEQHIFEKLEAITDEENEMLDLAYGLTDRSRLGCQICLTKAMDNMTVRVPDAVSDARESIDMGMNSSKIE | -0.45 kcal/mol | 3.64 kcal/mol | 53.4 °C | 2.01 °C | 2.45 kcal/mol/K | 86.8 kcal/mol |
| MAARLLRVASAALGDTAGRWRLLARPRAGAGGLRGSRGPGLGGGAVATRTLSVSGRAQSSSEDKITVHFINRDGETLTTKGKIGDSLLDVVVQNNLDIDGFGACEGTLACSTCTLIFEQHIFEKLEAITDEENDMLDLAYGLTDRSRLGCQICLTKAMDNMTVRVPDAVSDARESIDMGMNSSKIE | 1.19 kcal/mol | 1.99 kcal/mol | – | – | – | – |
| MAARLLRVASAALGDTAGRWRLLARPRAGAGGLRGSRGPGLGGGAVATRTLSVSGRAQSSSEDKITVHFINRDGETLTTKGKIGDSLLDVVVQNNLDIDGFGACEGTLACSTCHLIFEQHIFEKLEAITDEENDMLDLAWGLTDRSRLGCQICLTKAMDNMTVRVPDAVSDARESIDMGMNSSKIE | 0.21 kcal/mol | 2.97 kcal/mol | 51.7 °C | 0.31 °C | 1.87 kcal/mol/K | 78.6 kcal/mol |
| MAARLLRVASAALGDTAGRWRLLARPRAGAGGLRGSRGPGLGGGAVATRTLSVSGRAQSSSEDKITVHFINRDGETLTTKGKIGDSLLDVVVQNNLDIDGFGACEGTLACSTCHLIFEQHIFEKLEAITDEENDMLDLASGLTDRSRLGCQICLTKAMDNMTVRVPDAVSDARESIDMGMNSSKIE | – | – | 50.6 °C | -0.79 °C | 1.96 kcal/mol/K | 79.9 kcal/mol |
| MAARLLRVASAALGDTAGRWRLLARPRAGAGGLRGSRGPGLGGGAVATRTLSVSGRAQSSSEDKITVHFINRDGETLTTKGKIGDSLLDVVVQNNLDIDGFGACEGTLACSTCHLIFEQHIFEKLEAITDEENDMLDLAYGLTDRSRLGCQISLTKAMDNMTVRVPDAVSDARESIDMGMNSSKIE | – | – | 55.8 °C | 4.36 °C | 1.62 kcal/mol/K | 89.3 kcal/mol |
| MAARLLRVASAALGDTAGRWRLLARPRAGAGGLRGSRGPGLGGGAVATRTLSVSGRAQSSSEDKITVHFINRDGETLTTKGKIGDSLLDVVVQNNLDIDGFGACEGTLACSTCQLIFEQHIFEKLEAITDEENDMLDLAYGLTDRSRLGCQICLTKAMDNMTVRVPDAVSDARESIDMGMNSSKIE | – | – | 46.5 °C | -4.94 °C | 1.7 kcal/mol/K | 59.6 kcal/mol |
